These results are taken from paper PMC9253770, “The C-Terminal Domain of Y-Box Binding Protein 1 Exhibits Structure-Specific Binding to Poly(ADP-Ribose), Which Regulates PARP1 Activity”.

This series concerns the target YB-1 (Δ1-2) (UniProt P67809 1-230). Nature of the series: fluorescence anisotropy; DNA binding similar to full-length; EC50 within 1100-3100 nM, exact value only in figure; 50 mM Tris-HCl pH 8.0, 40 mM NaCl, 1 mM DTT, 100 ug/ml BSA, 50 nM FAM-DNA, 25 C (anisotropy). PAR EMSA rows left out: PAR is a heterogeneous polymer without a defined nucleic acid sequence. Particulars: protein: recombinant; label: 5'-FAM on strand 1; nicked 32-bp duplex, blunt ends; nick opposite strand 1 positions 15/16. For orientation: Fluorescence polarisation rises when a labelled molecule tumbles more slowly, as on binding a larger partner.

YB-1 (Δ1-2), sequence (P67809 1-230, stated change not applied): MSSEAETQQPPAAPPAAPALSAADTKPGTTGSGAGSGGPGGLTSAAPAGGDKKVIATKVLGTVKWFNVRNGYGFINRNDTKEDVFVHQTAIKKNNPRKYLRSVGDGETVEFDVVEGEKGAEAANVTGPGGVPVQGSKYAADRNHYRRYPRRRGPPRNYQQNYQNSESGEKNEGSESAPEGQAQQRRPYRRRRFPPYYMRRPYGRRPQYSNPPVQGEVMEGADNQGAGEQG

B1: Nick (FAM-labeled nicked DNA duplex) (dsDNA)
DNA 1: CCGCTATTTCAACCCTTTGCAGTCCCAGAAGG
DNA 2: GGGTTGAAATAGCGG
DNA 3: CCTTCTGGGACTGCAAA
modifications: phosphate on the 17-mer (printed as 5'-p…)
Consider B1, for which the binding result was “binds”.
